Assay results taken from the supplement of paper PMC10724198.
± gives the standard deviation of the averaged measurements.

test system: Saccharomyces cerevisiae; experiment: protein stability index of tFT-peptide fusion (C-terminal peptide) (PSI (0-1 scale)); higher = more stable (slower turnover); settings: genetic background: wild type; temperature: 30 C
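Also: PSI is a weighted mean of sequencing reads over stability bins, variants kept only with over 10 reads, mCherry proximal and sfGFP distal, peptide attached via GGGS linker.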

RLIHRLLGLFPS was tested. Which protein stability index did it give?
The protein stability index was 0.69 ± 0.06.

With ERHTASGHLLFV as the sequence, how does the protein stability index read?
Its protein stability index is 0.729 ± 0.14.

With CFVERRCFLLYR as the sequence, how does the protein stability index read?
The protein stability index was 0.562 ± 0.029.

GGRCGSVGRGGA was tested. Which protein stability index did it give?
The protein stability index was 0.735 ± 0.065.

PYIFLPLGRAGN was tested. Which protein stability index did it give?
Its protein stability index is 0.723 ± 0.076.

With WSGVFSCTLSIT as the sequence, how does the protein stability index read?
The protein stability index was 0.567 ± 0.038.

Which protein stability index does the source give for PLPCPRGHDHPA here?
Its protein stability index is 0.688 ± 0.068.

With VQVRPVVTVPSK as the sequence, how does the protein stability index read?
The protein stability index was 0.7 ± 0.068.

ACEAERRTFRWV was tested. Which protein stability index did it give?
The protein stability index was 0.66 ± 0.012.

How did the protein stability index turn out when LTEFVVFFFFVF was run?
Its protein stability index is 0.5166 ± 0.0049.

For PHRSTRIDVDPC, which protein stability index is on record?
The protein stability index was 0.837 ± 0.12.

For ERSVSDSHERID, which protein stability index is on record?
The protein stability index was 0.678 ± 0.05.

With GHRLSMCLGFGK as the sequence, how does the protein stability index read?
Its protein stability index is 0.63 ± 0.01.

For KKNKKKNRTKIE, which protein stability index is on record?
The protein stability index was 0.657 ± 0.022.

With WAGGGGGRVCGW as the sequence, how does the protein stability index read?
Its protein stability index is 0.799 ± 0.11.

Which protein stability index does the source give for SPPPPVPSAGPL here?
Its protein stability index is 0.7 ± 0.042.

How did the protein stability index turn out when RGLVIWRVGGMK was run?
The protein stability index was 0.66337 ± 0.00065.

Which protein stability index does the source give for QKKKQTDHTNGV here?
The protein stability index was 0.684 ± 0.03.

How did the protein stability index turn out when NLARPTRTFAGV was run?
Its protein stability index is 0.684 ± 0.013.

ARVAFARLPNVC was tested. Which protein stability index did it give?
Its protein stability index is 0.66 ± 0.016.

With VFAFLKPTGKLV as the sequence, how does the protein stability index read?
The protein stability index was 0.597 ± 0.05.

ALSELSIDISHI was tested. Which protein stability index did it give?
The protein stability index was 0.632 ± 0.067.

How did the protein stability index turn out when CGVWHGFFGLWL was run?
The protein stability index was 0.657 ± 0.12.

Which protein stability index does the source give for SFSSPPPTLVPP here?
The protein stability index was 0.693 ± 0.038.

For PPPPPHSSPFRS, which protein stability index is on record?
Its protein stability index is 0.694 ± 0.01.

Which protein stability index does the source give for SKQNNIEMKKYK here?
The protein stability index was 0.741 ± 0.036.

Which protein stability index does the source give for MRPSLSDAMMSS here?
Its protein stability index is 0.687 ± 0.055.

VQWTEFYWVRKG was tested. Which protein stability index did it give?
Its protein stability index is 0.575 ± 0.037.

Which protein stability index does the source give for PALPPAPPPPPP here?
The protein stability index was 0.693 ± 0.044.

LPPPPSFTSPHL was tested. Which protein stability index did it give?
The protein stability index was 0.743 ± 0.12.

How did the protein stability index turn out when LALYISFGLSLI was run?
The protein stability index was 0.526 ± 0.031.

How did the protein stability index turn out when VRGRGVYRIDKV was run?
Its protein stability index is 0.716 ± 0.018.

With DGVQTVPFSCRL as the sequence, how does the protein stability index read?
Its protein stability index is 0.773 ± 0.28.

Which protein stability index does the source give for AAVSRPLPLGPP here?
The protein stability index was 0.693 ± 0.075.

For PLSVPPMSSLLP, which protein stability index is on record?
Its protein stability index is 0.7202 ± 0.0068.

For PRPLPPPPAFLP, which protein stability index is on record?
The protein stability index was 0.766 ± 0.08.

How did the protein stability index turn out when RVEELKFKNLII was run?
The protein stability index was 0.6633 ± 0.004.

How did the protein stability index turn out when QPITEALHDSCT was run?
Its protein stability index is 0.675 ± 0.098.

With AVGARRRLEVGD as the sequence, how does the protein stability index read?
Its protein stability index is 0.722 ± 0.016.

For AMSSVRCRLWPM, which protein stability index is on record?
Its protein stability index is 0.761 ± 0.034.

WSGKRAKGISEK was tested. Which protein stability index did it give?
Its protein stability index is 0.682 ± 0.04.

VGGRAAIVRGGW was tested. Which protein stability index did it give?
The protein stability index was 0.6853 ± 0.0026.

RGMPMARVRSAG was tested. Which protein stability index did it give?
Its protein stability index is 0.693 ± 0.054.

For IQPDVILLTRFV, which protein stability index is on record?
Its protein stability index is 0.6592 ± 0.0033.

FLRLGLLQTFSP was tested. Which protein stability index did it give?
The protein stability index was 0.677 ± 0.04.

How did the protein stability index turn out when TIRKNKTDVISK was run?
The protein stability index was 0.667 ± 0.017.

How did the protein stability index turn out when IPPPLPPRAPLP was run?
The protein stability index was 0.672 ± 0.057.

RSRDDAGASLHL was tested. Which protein stability index did it give?
Its protein stability index is 0.6666 ± 0.0054.

FITRPYKNIKNR was tested. Which protein stability index did it give?
The protein stability index was 0.702 ± 0.031.

PPPLPRRPASPL was tested. Which protein stability index did it give?
The protein stability index was 0.652 ± 0.014.

With PSRIRPPTASPP as the sequence, how does the protein stability index read?
Its protein stability index is 0.76 ± 0.061.

GRTEMNRIETTS was tested. Which protein stability index did it give?
Its protein stability index is 0.699 ± 0.037.

With LLSLFLLSPSVI as the sequence, how does the protein stability index read?
Its protein stability index is 0.681 ± 0.007.

For DRGWPHTYNTIL, which protein stability index is on record?
The protein stability index was 0.639 ± 0.1.

With VGRVGVRDGVVG as the sequence, how does the protein stability index read?
Its protein stability index is 0.613 ± 0.032.

How did the protein stability index turn out when PPSSTAALPPLP was run?
The protein stability index was 0.609 ± 0.066.

Which protein stability index does the source give for WRRGIRAKIDSI here?
The protein stability index was 0.678 ± 0.015.

For HPPAPSPPETSL, which protein stability index is on record?
Its protein stability index is 0.69756 ± 0.0005.

How did the protein stability index turn out when SFVLFAGPVFFW was run?
Its protein stability index is 0.655 ± 0.025.

How did the protein stability index turn out when PSLPPDLPPPPA was run?
The protein stability index was 0.744 ± 0.011.

HPSFPPHRSPAS was tested. Which protein stability index did it give?
Its protein stability index is 0.78 ± 0.023.

DVFCFWCVSGFV was tested. Which protein stability index did it give?
The protein stability index was 0.651 ± 0.082.

With VRVEGQCWMGRI as the sequence, how does the protein stability index read?
The protein stability index was 0.679 ± 0.017.

WNFVCGVFFATG was tested. Which protein stability index did it give?
Its protein stability index is 0.543 ± 0.056.

For NRKGNKGEKNTK, which protein stability index is on record?
The protein stability index was 0.676 ± 0.048.

SLPRPPPPASTP was tested. Which protein stability index did it give?
The protein stability index was 0.623 ± 0.0068.

TKRQKQKKKNKE was tested. Which protein stability index did it give?
Its protein stability index is 0.696 ± 0.071.

With RSFPPPPARSLP as the sequence, how does the protein stability index read?
Its protein stability index is 0.711 ± 0.039.

With FSKTYTIMLITI as the sequence, how does the protein stability index read?
The protein stability index was 0.538 ± 0.0077.

Which protein stability index does the source give for PQPLFLPSPLSR here?
Its protein stability index is 0.702 ± 0.06.

With GRGEEKRDGGRR as the sequence, how does the protein stability index read?
The protein stability index was 0.673 ± 0.059.

For RVSLGHGRAFWP, which protein stability index is on record?
The protein stability index was 0.711 ± 0.083.

With DLSVSDGCVAFG as the sequence, how does the protein stability index read?
The protein stability index was 0.64 ± 0.048.

For LTGESGDRSVGP, which protein stability index is on record?
The protein stability index was 0.657 ± 0.019.

KKKKKNTIKKNK was tested. Which protein stability index did it give?
Its protein stability index is 0.708 ± 0.0083.

RRMDGHLRELPA was tested. Which protein stability index did it give?
The protein stability index was 0.685 ± 0.058.

PSRPLPPPPPPL was tested. Which protein stability index did it give?
The protein stability index was 0.765 ± 0.14.

How did the protein stability index turn out when PRARHSVPNIQS was run?
Its protein stability index is 0.694 ± 0.042.

SPPLHPPPPFPL was tested. Which protein stability index did it give?
The protein stability index was 0.769 ± 0.047.

Which protein stability index does the source give for PPPRPDLTVGQP here?
Its protein stability index is 0.654 ± 0.04.

With RPAAPGSKGDDN as the sequence, how does the protein stability index read?
The protein stability index was 0.7 ± 0.043.

VCEGFRTWALGG was tested. Which protein stability index did it give?
The protein stability index was 0.722 ± 0.03.

GCGGVEAVGGVC was tested. Which protein stability index did it give?
The protein stability index was 0.586 ± 0.025.

How did the protein stability index turn out when PSCALAFRSEPH was run?
Its protein stability index is 0.741 ± 0.018.

How did the protein stability index turn out when AWGLKRSCRIKL was run?
Its protein stability index is 0.678 ± 0.051.

How did the protein stability index turn out when DGKNSGHGLAKT was run?
The protein stability index was 0.702 ± 0.087.

For HSNPPPRRHPTI, which protein stability index is on record?
Its protein stability index is 0.756 ± 0.068.

With PIPPDGGSPPSP as the sequence, how does the protein stability index read?
The protein stability index was 0.714.

For LPARSLPPPRPP, which protein stability index is on record?
The protein stability index was 0.653 ± 0.0089.

For GDTVLLCDLASC, which protein stability index is on record?
Its protein stability index is 0.687 ± 0.0092.

How did the protein stability index turn out when SPFCGVRFRFCY was run?
The protein stability index was 0.632 ± 0.064.

TFSFSRPPLPPA was tested. Which protein stability index did it give?
The protein stability index was 0.6853 ± 0.0066.

Which protein stability index does the source give for GGGGGGGLGGAF here?
The protein stability index was 0.717 ± 0.026.

Which protein stability index does the source give for LLLLLPPLPFVP here?
The protein stability index was 0.66 ± 0.035.

PIPPPPPPPSSP was tested. Which protein stability index did it give?
The protein stability index was 0.699 ± 0.0086.

With YGYMTNNCLLSI as the sequence, how does the protein stability index read?
The protein stability index was 0.649 ± 0.041.

For IKKKTNYMNEKI, which protein stability index is on record?
The protein stability index was 0.661 ± 0.0096.

Which protein stability index does the source give for GEAKAARNKRMI here?
Its protein stability index is 0.708 ± 0.024.

With IVGLLGICVGRC as the sequence, how does the protein stability index read?
Its protein stability index is 0.57 ± 0.024.

For KKIRGNSQLHPG, which protein stability index is on record?
Its protein stability index is 0.63 ± 0.015.

How did the protein stability index turn out when LRGPRRAVEGTP was run?
The protein stability index was 0.66 ± 0.031.
